# Source: publication PMC4447949, “Structures of the Ets Protein DNA-binding Domains of Transcription Factors Etv1, Etv4, Etv5, and Fev” (The Journal of Biological Chemistry, 2015)
# Where a chain is given by its changes, count along the chain named. Names may count otherwise.
# T1: Fev Ets domain (human, UniProt Q99581 42-141)
# T1 sequence: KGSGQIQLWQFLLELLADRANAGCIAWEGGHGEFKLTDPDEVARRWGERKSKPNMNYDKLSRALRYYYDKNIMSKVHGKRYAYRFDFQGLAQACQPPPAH
# B1: Etv5 Ets domain (amino acids 365-462) (domain or fragment, human, UniProt P41161 365-462, looked up)
# chain: RGSLQLWQFLVTLLDDPANAHFIAWTGRGMEFKLIEPEEVARRWGIQKNRPAMNYDKLSRSLRYYYEKGIMQKVAGERYVYKFVCDPDALFSMAFPDN
# notes: Etv5 (ERM), Ets domain construct, amino acids 365-462; TEV cleavage leaves SM before the insert; The limits are those told for the crystallisation construct; also called ERM; Etv5 WT; source: E. coli BL21 (DE3) Rosetta-R3, purified with TCEP (Ni-IDA, TEV cleavage, SEC); E. coli Rosetta-gami 2, purified without TCEP; not shown: His6, N-terminal, cleaved
# B2: Etv4 Ets domain (amino acids 338-470) (domain or fragment, human, UniProt P43268 338-470, looked up)
# chain: RGALQLWQFLVALLDDPTNAHFIAWTGRGMEFKLIEPEEVARLWGIQKNRPAMNYDKLSRSLRYYYEKGIMQKVAGERYVYKFVCEPEALFSLAFPDNQRPALKAEFDRPVSEEDTVPLSHLDESPAYLPELA
# notes: Etv4 (PEA3), Ets domain construct, amino acids 338-470; TEV cleavage leaves SM before the insert; The limits are those told for the crystallised construct; also called PEA3; Etv4 WT; source: E. coli BL21 (DE3) Rosetta-R3, purified with TCEP (Ni-IDA, TEV cleavage, SEC); E. coli Rosetta-gami 2, purified without TCEP; not shown: His6, N-terminal, cleaved
# B3: Etv1^Y329S-P427S Ets domain (amino acids 326-429) (domain or fragment, human, UniProt P50549 326-429, looked up)
# chain: GPTSQRRGSLQLWQFLVALLDDPSNSHFIAWTGRGMEFKLIEPEEVARRWGIQKNRPAMNYDKLSRSLRYYYEKGIMQKVAGERYVYKFVCDPEALFSMAFSDN
# notes: Etv1 (Ets translocation variant 1, ER81), Ets domain construct, amino acids 326-429, with two primer-incorporated mutations; A selenomethionine form was used for phasing of the DNA complex; also called PCR mutant Ets domain; ER81; source: E. coli BL21 (DE3) Rosetta-R3, purified (Ni-IDA, TEV cleavage, SEC); not shown: His6, N-terminal, cleaved
# B4: Etv1 wild-type Ets domain (amino acids 326-429) (domain or fragment, human, UniProt P50549 326-429, looked up)
# chain: B3 chain with S4Y, S102P
# notes: Same limits as the crystallised Y329S-P427S construct (PDB 4AVP, 4BNC); TEV cleavage leaves SM before the insert; From Rosetta-gami 2 under nonreducing conditions it is a disulfide-linked dimer; also called WT; WT dimer; source: E. coli BL21 (DE3) Rosetta-R3, purified with TCEP (Ni-IDA, TEV cleavage, SEC); E. coli Rosetta-gami 2, purified without TCEP; not shown: His6, N-terminal, cleaved
# B5: 10-bp crystallization duplex (dsDNA)
# DNA 1: ACCGGAAGTG
# DNA 2: CACTTCCGGT
# B6: 9-bp crystallization duplex with overhangs (dsDNA)
# DNA 1: ACCGGAAGTG
# DNA 2: ACTTCCGGTC
# B7: Fev Ets domain (amino acids 42-141) (domain or fragment, human, UniProt Q99581 42-141, looked up)
# chain: T1 sequence
# notes: Fev (Fifth Ewing Variant, PET-1), Ets domain construct, amino acids 42-141; TEV cleavage leaves SM before the insert; also called Fifth Ewing Variant; PET-1; source: E. coli BL21 (DE3) Rosetta-R3, purified (Ni-IDA, TEV cleavage, SEC); not shown: His6, N-terminal, cleaved
# How the values were obtained:
# [1] = molecular target: the molecule itself; experiment: SEC; protein expressed in Rosetta-gami 2 E. coli and purified under nonreducing conditions (no TCEP); Superdex S75 or 200, 20 mM HEPES pH 7.5, 500 mM NaCl, 5% glycerol; dimer checked by SDS-PAGE with or without DTT and by mass spectrometry
# [2] = molecular target: the molecule itself; experiment: crystal structure; DNA-free crystals; dimer seen between adjacent molecules in the crystal, with an intermolecular disulfide bond; protein purified with TCEP
# Fev Ets domain = molecular target: T1, Fev Ets domain; experiment: X-ray crystallography; text cites 2YPR for the complex, but Fig. 1 uses 2YPR as Fev and Fig. 7 gives 3ZP5 as Fev-dsDNA; EMSA: 50 mM Tris-HCl pH 7.5, 50 mM NaCl, 2 mM MgCl2, 0.01% Tween 20, 5% glycerol, 1 h at room temperature; proteins reduced with 10 mM TCEP unless stated; 10% native PAGE; conditions: protein: recombinant; tags: N-terminal His6 removed by TEV (leaves SM); chain copies: 2; blunt
# Etv1 Y329S-P427S = Etv1 Y329S-P427S (human, UniProt P50549 326-429, Y329S;P427S); experiment: X-ray crystallography; 2.9 A; EMSA: 50 mM Tris-HCl pH 7.5, 50 mM NaCl, 2 mM MgCl2, 0.01% Tween 20, 5% glycerol, 1 h at room temperature; proteins reduced with 10 mM TCEP unless stated; 10% native PAGE; conditions: protein: recombinant; tags: N-terminal His6 removed by TEV (leaves SM); blunt
# Etv4 Ets domain = Etv4 Ets domain (human, UniProt P43268 338-470); experiment: X-ray crystallography; 2.8 A; 8 complexes per asymmetric unit; EMSA: 50 mM Tris-HCl pH 7.5, 50 mM NaCl, 2 mM MgCl2, 0.01% Tween 20, 5% glycerol, 1 h at room temperature; proteins reduced with 10 mM TCEP unless stated; 10% native PAGE; conditions: protein: recombinant; tags: N-terminal His6 removed by TEV (leaves SM); 3' overhang 1 nt on each strand
# Etv5 Ets domain = Etv5 Ets domain (human, UniProt P41161 365-462); experiment: X-ray crystallography; 1.95 A; Ca2+ bound near alpha4; EMSA: 50 mM Tris-HCl pH 7.5, 50 mM NaCl, 2 mM MgCl2, 0.01% Tween 20, 5% glycerol, 1 h at room temperature; proteins reduced with 10 mM TCEP unless stated; 10% native PAGE; conditions: protein: recombinant; tags: N-terminal His6 removed by TEV (leaves SM); 3' overhang 1 nt on each strand
binder,measurement,setting,value
B1,stoichiometry N,[1],2
B2,stoichiometry N,[1],2
B3,binding result,[2],binds
B4,stoichiometry N,[1],2
B5,binding result,Fev Ets domain,binds
same,binding result,Etv1 Y329S-P427S,binds
B6,binding result,Etv4 Ets domain,binds
same,binding result,Etv5 Ets domain,binds
B7,binding result,[2],binds
